B1: Twister Ribozyme (parent)
chain: AACACUGCCAAUGCCGGUCCCAAGCCCGGAUAAAAGUGGAGGGGGCGG

Variants of B1 are the subject of the data set. The data set is described as follows: self-cleavage, relative activity (ratio to wild type); higher = more cleavage; co-transcriptional.
In the case of AACACCGCCAAUGCCGGUCCCAAGCCCGGAUAUAAGUGGAGGGGGCGG [U6C A33U], the self-cleavage was determined as 0.319.

Turning to AACACCGCCAAUGCCGGUCCCAUGCCCGGAUAAAAGUGGAGGGGGCGG [U6C A23U], the self-cleavage was determined as 0.0534.

Turning to AACACGGCCUAUGCCGGUCCCAAGCCCGGAUAAAAGUGGAGGGGGCGG [U6G A10U], the self-cleavage was found to be 0.204.

As for AACACGGCCAAUGCCGGUCACAAGCCCGGAUAAAAGUGGAGGGGGCGG [U6G C20A], the self-cleavage is 0.0634.

With AACACCGCCAUUGCCGGUCCCAAGCCCGGAUAAAAGUGGAGGGGGCGG [U6C A11U], the self-cleavage stood at 0.673.

On to AACACCGCCAGUGCCGGUCCCAAGCCCGGAUAAAAGUGGAGGGGGCGG [U6C A11G], for which the self-cleavage was 0.535.

In the case of AACACCGCCACUGCCGGUCCCAAGCCCGGAUAAAAGUGGAGGGGGCGG [U6C A11C], the self-cleavage is 0.292.

Turning to AACACGGCCAAUGCCGGUCCCAUGCCCGGAUAAAAGUGGAGGGGGCGG [U6G A23U], the self-cleavage worked out at 0.0909.

With AACACCGCCAAUGCCCGUCCCAAGCCCGGAUAAAAGUGGAGGGGGCGG [U6C G16C], the self-cleavage worked out at 0.146.

With AACACCGCCAAUGCCAGUCCCAAGCCCGGAUAAAAGUGGAGGGGGCGG [U6C G16A], the self-cleavage stood at 0.318.

AACACAGCCAAUGCCGGUCCCAAGCCCGGAUAAAAGUGGAGGGGUCGG [U6A G45U]: the self-cleavage was determined as 0.695.

AACACAGCCAAUGCCGGUCCCAAGCCCGGAUAAAAUUGGAGGGGGCGG [U6A G36U]: the self-cleavage was 0.202.

Regarding AACACCGCCAAUGCCGGUCCCAAGCCCGGAUAAAAGUGGAGGGGGAGG [U6C C46A], the self-cleavage is 0.65.

Take AACACGGCCAAUGCCGGUCCCAAGCCCGGAUUAAAGUGGAGGGGGCGG [U6G A32U]: the self-cleavage was 0.405.

Consider AACACCGCCAAUACCGGUCCCAAGCCCGGAUAAAAGUGGAGGGGGCGG [U6C G13A], for which the self-cleavage was found to be 0.0845.

As for AACACCGCCAAUUCCGGUCCCAAGCCCGGAUAAAAGUGGAGGGGGCGG [U6C G13U], the self-cleavage was determined as 0.0523.

Turning to AACACCGCCAAUCCCGGUCCCAAGCCCGGAUAAAAGUGGAGGGGGCGG [U6C G13C], the self-cleavage is 0.107.

Take AACACGGCCAAUGCCGGUCCCAAGCCCGGAUAAACGUGGAGGGGGCGG [U6G A35C]: the self-cleavage was 0.678.

Turning to AACACGGCCAAUGCCGGUCCCAAGCCCGGAUAAAUGUGGAGGGGGCGG [U6G A35U], the self-cleavage turned out to be 0.549.

With AACACGGCCAAUGCGGGUCCCAAGCCCGGAUAAAAGUGGAGGGGGCGG [U6G C15G], the self-cleavage was 0.0391.

For the variant AACACCGCCAAUGCCGGUCCCAAGCCCGGAUAAAAGAGGAGGGGGCGG [U6C U37A], the self-cleavage stood at 0.131.

AACACCGCCAAUGCCGGUCCCAAGCCCGGAUAAAAGCGGAGGGGGCGG [U6C U37C]: the self-cleavage was 0.0955.

AACACCCCCAAUGCCGGUCCCAAGCCCGGAUAAAAGUGGAGGGGGCGG [U6C G7C]: the self-cleavage was determined as 0.0439.

Take AACACCACCAAUGCCGGUCCCAAGCCCGGAUAAAAGUGGAGGGGGCGG [U6C G7A]: the self-cleavage turned out to be 0.0638.

AACACCGCCAAUGCCGGUCCCAAGCCCGGAUAAAAGUGCAGGGGGCGG [U6C G39C]: the self-cleavage is 0.136.

In the case of AACACCGCCAAUGCCGGUCCCAAGCCCGGAUAAAAGUGUAGGGGGCGG [U6C G39U], the self-cleavage turned out to be 0.114.

As for AACACCGCCAAUGCCGGUCCCAAGCCCGGAUAAAAGUGAAGGGGGCGG [U6C G39A], the self-cleavage came to 0.273.

Turning to AACACCGCCAAUGCCGGUCCCUAGCCCGGAUAAAAGUGGAGGGGGCGG [U6C A22U], the self-cleavage was determined as 0.141.

Take AACACCGCCAAUGCCGGUCCCAAGCCCGGAUAAAAGUGGAGGCGGCGG [U6C G43C]: the self-cleavage was 0.128.

For AACACCGCCAAUGCCGGUCCCAAGCCCGGAUAAAAGUGGAGGUGGCGG [U6C G43U], the self-cleavage was 0.134.

For AACACCGCCAAUGCCGGUCCCAAGCCCGGAUAAAAGUGGAGGAGGCGG [U6C G43A], the self-cleavage amounted to 0.0844.

For AACACCGCCAAUGCCGGUCCCAAGCCCGGAUAAAAGUGGAGGGGGCCG [U6C G47C], the self-cleavage stood at 0.209.

In the case of AACACCGCCAAUGCCGGUCCCAAGCCCGGAUAAAAGUGGAGGGGGCUG [U6C G47U], the self-cleavage is 0.575.

With AACACCGCCAAUGCCGGUCCCAAGCCCGGAUAAAAGUGGAGGGGGCAG [U6C G47A], the self-cleavage stood at 0.579.

As to AACACGGCCAAUGUCGGUCCCAAGCCCGGAUAAAAGUGGAGGGGGCGG [U6G C14U], the self-cleavage is 0.608.

In the case of AACACGGCCAUUGCCGGUCCCAAGCCCGGAUAAAAGUGGAGGGGGCGG [U6G A11U], the self-cleavage was found to be 0.381.

On to AACACAGCCAAAGCCGGUCCCAAGCCCGGAUAAAAGUGGAGGGGGCGG [U6A U12A], for which the self-cleavage was found to be 1.13.

On to AACACCGCCAAUGGCGGUCCCAAGCCCGGAUAAAAGUGGAGGGGGCGG [U6C C14G], for which the self-cleavage was determined as 0.0559.

For the variant AACACCGCCCAUGCCGGUCCCAAGCCCGGAUAAAAGUGGAGGGGGCGG [U6C A10C], the self-cleavage was found to be 0.772.

Take AACACCGCCUAUGCCGGUCCCAAGCCCGGAUAAAAGUGGAGGGGGCGG [U6C A10U]: the self-cleavage is 0.602.

Turning to AACACGGCCAAUGCCGGUCCCUAGCCCGGAUAAAAGUGGAGGGGGCGG [U6G A22U], the self-cleavage stood at 0.136.

On to AACACGGCCAAUGCCGGUCCCAAGCCCGGAUAACAGUGGAGGGGGCGG [U6G A34C], for which the self-cleavage came to 0.539.

In the case of AACACGGCCAAUGCCGGUCCCAAGCCCGGAUAAGAGUGGAGGGGGCGG [U6G A34G], the self-cleavage amounted to 0.392.

Take AACACCGCCAAUGCCGGUCCCAAGCCCGGAUAAAAGUGGAGGGGGCGG [U6C]: the self-cleavage is 0.596.

As to AACACGGCCAAUGCCGGUCCCAAGCCCGGAUAAAAGUGGAGGGGGCGG [U6G], the self-cleavage was 0.486.

With AACACCGCCAAUGCCGGUCCCAAGGCCGGAUAAAAGUGGAGGGGGCGG [U6C C25G], the self-cleavage was determined as 0.0594.

Take AACACCGCCAAUGCCGGUCCCAAGUCCGGAUAAAAGUGGAGGGGGCGG [U6C C25U]: the self-cleavage was found to be 0.184.

On to AACACCGCCAAUGCCGGUCCCAAGCCCGGAUAAAAGUGGGGGGGGCGG [U6C A40G], for which the self-cleavage amounted to 0.0788.

In the case of AACACGGCCAAUGCCGGUCCCAAGCCCGGAUAUAAGUGGAGGGGGCGG [U6G A33U], the self-cleavage was 0.234.

For AACACGGCCAAUGCCGGUCCCAAGCCCGGAUAGAAGUGGAGGGGGCGG [U6G A33G], the self-cleavage amounted to 0.199.

With AACACGGCCAAUGCCGGUCCCAAGCCCGGUUAAAAGUGGAGGGGGCGG [U6G A30U], the self-cleavage turned out to be 0.687.

In the case of AACACGGCCAAUGCCGGUCCCAAGCCCGGGUAAAAGUGGAGGGGGCGG [U6G A30G], the self-cleavage was determined as 0.322.

For the variant AACACAGCCAAUGCCGGUCCCAAGCCCGGAUAAAAGGGGAGGGGGCGG [U6A U37G], the self-cleavage was determined as 0.328.

On to AACACAGCCAAUGCCGGUCCCAAGCCCGGAUAAAAGCGGAGGGGGCGG [U6A U37C], for which the self-cleavage was determined as 0.124.

The values are drawn from the RNAGym collection of RNA variant scans (doi:10.7554/elife.80360).
